This experiment addresses LRP2 (megalin) (Mus musculus, UniProt A2ARV4). Description: SPR.

B1: RAP (receptor-associated protein) (protein)
chain: YSREKNQPKPSPKRESGEEFRMEKLNQLWEKAQRLHLPPVRLAELHADLKIQERDELAWKKLKLDGLDEDGEKEARLIRNLNVILAKYGLDGKKDARQVTSNSLSGTQEDGLDDPRLEKLWHKAKTSGKFSGEELDKLWREFLHHKEKVHEYNVLLETLSRTEEIHENVISPSDLSDIKGSVLHSRHTELKEKLRSINQGLDRLRRVSHQGYSTEAEFEEPRVIDLWDLAQSANLTDKELEAFREELKHFEAKIEKHNHYQKQLEIAHEKLRHAESVGDGERVSRSREKHALLEGRTKELGYTVKKHLQDLSGRISRARHNEL
Molecule B1 showed a Kd of 5.8 nM.

The record behind these values is article PMC9993842 (2023).
